The record followed here is ChEMBL document CHEMBL1122571, “Design and synthesis of tetrahedral intermediate analogues as potential dihydroorotase inhibitors” (J Med Chem, 1984).

The data set has as its system O=C1CC(C(=O)O)NC(=O)N1. In words: Compound was evaluated for the inhibition of dihydroorotase enzyme from mouse Ehrlich ascites at the concentration of 10 uM and at pH 7.37.

The term Km denotes the concentration of substrate that gives half-maximal velocity. Regarding “Multifunctional protein CAD (Mus musculus), B2RQC6”, the Km was 4 µM.
